Measurements as given in patent US20250051437A1 (University of California, published 2025).
Where no end group is shown, it is not given here.

Assays:
Peptide 4 = biological target: T1, Peptide 4 (also: biotin label, position not given here); test: titration ELISA, biotinylated peptide on streptavidin-coated plate
T1 construct: LDANGII with the fourth residue N changed to A; also called LDAAGII
T1 peptide: LDAAGII

[1] = biological target: T2, human CDH17-mGFP fusion protein overexpressed on HEK293T cells (clone G11) (human, UniProt Q12864 23-832); test: flow cytometry (iQue) on HEK293T CDH17 mGFP clone G11 (human), 1 µg Ab
T2 construct: also called HEK293T CDH17mGFP Clone G11; HEK293T Human CDH17mGFP G11; not shown: mGFP fluorescent protein fused to CDH17

[2] = biological target: T3, human cadherin-17 (CDH17), endogenously expressed on human cancer cell lines (LS513, SNU-C1, PaTu8988s, … (human, UniProt Q12864 23-832)); test: flow cytometry (iQue) on PATU8988S cells, 0.2 µg Ab
T3 construct: also called LS513 (Colon, CDH17+); HPAF2

Peptide 8 = biological target: T4, Peptide 8 (also: biotin label, position not given here); test: titration ELISA, antibody 1500 to 0.157 ng/ml, biotinylated peptide on streptavidin-coated plate
T4 construct: LDANGII with the third residue A changed to G; also called LDGNGII
T4 peptide: LDGNGII

Peptide 7 = biological target: T5, Peptide 7 (also: biotin label, position not given here); test: as above
T5 construct: LDANGII with the seventh residue I changed to A; also called LDANGIA
T5 peptide: LDANGIA

Peptide 1 = biological target: T6, Peptide 1 (also: biotin label, position not given here); test: as above
T6 construct: also called Original 7-mer peptide; LDANGII
T6 peptide: LDANGII

Peptide 2 = biological target: T7, Peptide 2 (also: biotin label, position not given here); test: as above
T7 construct: LDANGII with the first residue L changed to A; also called ADANGII
T7 peptide: ADANGII

[3] = biological target: T8, mouse CDH17-mGFP fusion protein overexpressed on HEK293T cells (mouse, UniProt Q9R100 26-827); test: flow cytometry (BD C6) on HEK293T Mouse CDH17 mGFP cells
T8 construct: also called HEK293T Mouse CDH17mGFP mass; not shown: mGFP fluorescent protein
Experimental: To determine relative antigen binding strengths of the humanized antibodies, FACS assays were carried out as essentially described in Example 1. […] Using a BD Biosciences Accuri™ C6 Flow Cytometer (San Jose, CA), antibody binding based on Alexa Fluor® 647 fluorescence was measured in the FL4-H channel and fusion protein overexpression based on GFP fluorescence was measured in the FL1-H channel.

[4] = biological target: T9, recombinant CDH17 extracellular domain (ECD) with 6x His tag (human, UniProt Q12864 23-787); test: ELISA on recombinant CDH17 ECD-6xHis
T9 construct: also called Recombinant CDH17 ECD-6xhis tag

[5] = biological target: T10, rat CDH17 fused to moxGFP, overexpressed on HEK293T cells (rat, UniProt P55281 22-827); test: flow cytometry on HEK293T rat CDH17mGFP mass population, 20 µg/ml
T10 construct: whole, on cells; also called HEK293T Rat CDH17mGFP mass pop; rat CDH17-moxGFP

[6] = biological target: T2, human CDH17-mGFP fusion protein …; test: KinExA, cell-based, HEK293T overexpressing human CDH17-mGFP (FIG. 16)
Experimental: (§1) The cell-based antibody affinity (KD) of the anti-CDH17 antibodies was measured by KinExA 4000 (Sapidyne Instrument, Boise, Idaho). Briefly, HEK293T overexpressing CDH17-fluorescent protein fusion (i.e., human CDH17-mGFP, monkey CDH17-mGFP, mouse CDH17-mGFP or rat CDH17-mGFP) were detached with Versene and equilibrated with either 50 pM, 200 pM, 20 nM, or 50 nM antibody in 2% FBS/DMEM at 4° C. overnight. The cell concentration started at 5×10⁶ cells/mL or 1×10⁷ cells/mL and 2-fold serial dilutions were performed up to 10 points. The next day, the cells were centrifuged at 1500 rpm for 10 min and the supernatants were saved. […] In contrast, while the humanized anti-CDH17 antibody, 07-0653-h43, fails to bind mouse CDH17 protein, it binds rat CDH17 protein equally well as to human and monkey CDH17 protein such that its Kp is less than about 1 nM for human, monkey and rat CDH17 proteins with overlapping 95% confidence interval values.

[7] = biological target: T3, human cadherin-17 (CDH17), endogenously …; test: flow cytometry (iQue) on SNUC1 cells, 0.2 µg Ab
[8] = biological target: T8, mouse CDH17-mGFP fusion protein …; test: flow cytometry on HEK293T mouse CDH17mGFP mass population, 20 µg/ml
[9] = biological target: T3, human cadherin-17 (CDH17), endogenously …; test: flow cytometry on LS513 cells (CDH17+), 20 µg/ml
[10] = biological target: T2, human CDH17-mGFP fusion protein …; test: KinExA, cell-based, HEK293T CDH17mGFP clone G11
Experimental: as §1

[11] = biological target: T3, human cadherin-17 (CDH17), endogenously …; test: flow cytometry (iQue) on LS513 cells, 0.2 µg Ab
[12] = biological target: T3, human cadherin-17 (CDH17), endogenously …; test: KinExA, cell-based, SNUC1 cells

T8 sequence (Q9R100 26-827): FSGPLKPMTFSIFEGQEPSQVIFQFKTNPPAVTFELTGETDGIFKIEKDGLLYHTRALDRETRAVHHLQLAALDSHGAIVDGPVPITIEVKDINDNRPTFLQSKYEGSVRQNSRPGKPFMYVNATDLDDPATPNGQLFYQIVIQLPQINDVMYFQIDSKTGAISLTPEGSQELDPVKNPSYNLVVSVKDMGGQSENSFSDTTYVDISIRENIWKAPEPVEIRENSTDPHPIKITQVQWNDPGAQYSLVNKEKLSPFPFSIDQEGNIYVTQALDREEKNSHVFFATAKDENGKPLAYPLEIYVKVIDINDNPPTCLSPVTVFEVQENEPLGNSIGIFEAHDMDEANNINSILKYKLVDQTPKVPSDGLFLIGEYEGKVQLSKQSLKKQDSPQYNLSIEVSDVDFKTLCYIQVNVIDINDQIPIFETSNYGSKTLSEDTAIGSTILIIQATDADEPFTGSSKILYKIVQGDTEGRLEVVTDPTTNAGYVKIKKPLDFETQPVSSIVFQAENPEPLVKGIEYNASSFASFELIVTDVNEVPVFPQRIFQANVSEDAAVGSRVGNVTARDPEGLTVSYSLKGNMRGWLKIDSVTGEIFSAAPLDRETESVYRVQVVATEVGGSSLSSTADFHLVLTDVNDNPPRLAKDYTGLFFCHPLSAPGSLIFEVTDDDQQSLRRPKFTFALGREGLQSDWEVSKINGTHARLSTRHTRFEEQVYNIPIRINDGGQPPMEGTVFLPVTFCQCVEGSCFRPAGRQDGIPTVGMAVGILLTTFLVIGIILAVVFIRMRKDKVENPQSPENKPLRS
T10 sequence (P55281 22-827): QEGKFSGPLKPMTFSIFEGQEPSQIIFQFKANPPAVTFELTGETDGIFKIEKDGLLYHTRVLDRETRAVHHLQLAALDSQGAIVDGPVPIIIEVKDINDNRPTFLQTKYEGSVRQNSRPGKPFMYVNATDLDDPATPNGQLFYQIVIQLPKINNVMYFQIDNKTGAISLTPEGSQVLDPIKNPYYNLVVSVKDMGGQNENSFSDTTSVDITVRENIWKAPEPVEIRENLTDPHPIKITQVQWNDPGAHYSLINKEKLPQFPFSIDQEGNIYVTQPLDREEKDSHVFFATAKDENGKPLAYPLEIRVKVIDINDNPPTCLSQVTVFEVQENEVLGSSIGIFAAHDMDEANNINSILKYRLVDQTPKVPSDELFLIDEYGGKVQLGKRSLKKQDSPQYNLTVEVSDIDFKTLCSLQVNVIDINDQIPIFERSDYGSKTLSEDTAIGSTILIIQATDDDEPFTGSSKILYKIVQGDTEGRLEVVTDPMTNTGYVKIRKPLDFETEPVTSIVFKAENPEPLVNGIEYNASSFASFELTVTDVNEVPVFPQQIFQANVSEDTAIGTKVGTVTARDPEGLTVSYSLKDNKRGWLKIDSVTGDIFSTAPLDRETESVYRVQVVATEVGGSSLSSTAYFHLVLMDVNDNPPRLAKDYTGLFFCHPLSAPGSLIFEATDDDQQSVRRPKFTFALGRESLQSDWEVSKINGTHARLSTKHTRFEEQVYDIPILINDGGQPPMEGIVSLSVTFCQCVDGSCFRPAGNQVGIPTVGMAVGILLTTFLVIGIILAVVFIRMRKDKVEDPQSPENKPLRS

B1: humanized anti-CDH17 antibody 07-0663-h7 (antibody, human IgG1, kappa, V domains shown)
VH: QVQLVQSGAEVKKPGSSVKISCKVSGYTFTDHTIHWMRQAPGQGLEWIGYIFPRDDIVVYAQKFQGRATLTADKSTSTAYMELSSLRSEDTAVYYCARPPYYYSRNFYFDYWGQGTTLTVSS
VL: DIQMTQSPSSLSASVGDRVTITCRVSSIISSSKLHWYQQKPGKAPKPLIYGTSTLASGVPSRFSGSGSGTDYTLTISSLQPEDFATYYCQQWSNYPFTFGQGTKLEIKR
notes: Human IgG1 / kappa
With B1 the “ELISA reading at 1500 ng/ml antibody, lower of two rows” value (Peptide 4) was 0.038, the “ELISA reading at 1500 ng/ml antibody, upper of two rows” value (Peptide 4) was 0.0379 and the binding result (Peptide 4) was “no binding (tested: 1500 ng/ml)”. The “Antibody Binding Activity by Flow iQue” value [1] was 172000, the “Antibody Binding Activity by Flow iQue” value [2] was 102000 and the EC50 (Peptide 8) was 2.98 nM. It also gave an EC50 (Peptide 7) of 0.117 nM, an EC50 (Peptide 1) of 0.16 nM and an EC50 (Peptide 2) of 0.126 nM. For the same binder, the binding result [3] was “no binding (tested: 1 µg)”, the EC50 [4] was 1.22 nM and the “Cross Reactivity by Flow” value [5] was 2160. For the same binder, the Kd [6] was less than 1 nM, the “Antibody Binding Activity by Flow iQue” value [7] was 163000 and the “Cross Reactivity by Flow” value [8] was 2420. For the same binder, the “Antibody Binding Activity by Flow Cytometry” value [9] was 74700, the Kd [10] was 0.152 nM and the “Antibody Binding Activity by Flow iQue” value [11] was 2.24e+06. The Kd [12] was 0.157 nM.
